B1: TMEM40 (parent)
chain: YGETDFHKQDGKAGLFSQEQYERN
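Note: lentivirally expressed fusions sorted by FACS into six bins by GFP to DsRed ratio, PSI derived from sequencing read proportions per bin multiplied by bin number.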

Variants of: B1
Test: protein stability index of a GFP-peptide fusion (GPS, HEK-293T) (PSI 1-6); higher = more stable
Conditions: c terminus: a fixed tail appended
YGETHFHKQDGKAGLFSQEQYERN showed a protein stability index of 2.83.
Work on YGETVFHKQDGKAGLFSQEQYERN yielded a protein stability index of 3.2.
With YGETCFHKQDGKAGLFSQEQYERN the protein stability index was 2.36.
YGETTFHKQDGKAGLFSQEQYERN showed a protein stability index of 2.99.
Work on YGETGFHKQDGKAGLFSQEQYERN yielded a protein stability index of 2.37.
Variant YGETRFHKQDGKAGLFSQEQYERN has a protein stability index of 3.38.
Work on YGETLFHKQDGKAGLFSQEQYERN yielded a protein stability index of 3.07.
With YGETKFHKQDGKAGLFSQEQYERN the protein stability index was 3.2.
With YGESDFHKQDGKAGLFSQEQYERN the protein stability index was 4.06.
With YGEEDFHKQDGKAGLFSQEQYERN the protein stability index was 4.83.
Work on YGEKDFHKQDGKAGLFSQEQYERN yielded a protein stability index of 3.59.
Work on YGEGDFHKQDGKAGLFSQEQYERN yielded a protein stability index of 4.61.
YGEQDFHKQDGKAGLFSQEQYERN gave a protein stability index of 4.14.
YGEADFHKQDGKAGLFSQEQYERN gave a protein stability index of 3.78.
For YGECDFHKQDGKAGLFSQEQYERN, the protein stability index was 4.34.
With YGEYDFHKQDGKAGLFSQEQYERN the protein stability index was 4.04.
For YGEHDFHKQDGKAGLFSQEQYERN, the protein stability index was 4.13.
Work on YGEPDFHKQDGKAGLFSQEQYERN yielded a protein stability index of 3.62.
With YGERDFHKQDGKAGLFSQEQYERN the protein stability index was 3.33.
Variant YGEMDFHKQDGKAGLFSQEQYERN has a protein stability index of 3.67.
Work on YGELDFHKQDGKAGLFSQEQYERN yielded a protein stability index of 3.69.
For YGEIDFHKQDGKAGLFSQEQYERN, the protein stability index was 4.
Variant YGEDDFHKQDGKAGLFSQEQYERN has a protein stability index of 4.66.
In the case of YGENDFHKQDGKAGLFSQEQYERN, the protein stability index is reported as 4.59.
Variant YGEVDFHKQDGKAGLFSQEQYERN has a protein stability index of 4.14.
For YGEWDFHKQDGKAGLFSQEQYERN, the protein stability index was 3.28.
YGEFDFHKQDGKAGLFSQEQYERN gave a protein stability index of 4.43.
For YGSTDFHKQDGKAGLFSQEQYERN, the protein stability index was 1.98.
Variant YGYTDFHKQDGKAGLFSQEQYERN has a protein stability index of 3.79.
Work on YGITDFHKQDGKAGLFSQEQYERN yielded a protein stability index of 3.9.
With YGDTDFHKQDGKAGLFSQEQYERN the protein stability index was 3.09.
Work on YGKTDFHKQDGKAGLFSQEQYERN yielded a protein stability index of 3.55.
In the case of YGPTDFHKQDGKAGLFSQEQYERN, the protein stability index is reported as 3.88.
YGATDFHKQDGKAGLFSQEQYERN showed a protein stability index of 3.92.
YGGTDFHKQDGKAGLFSQEQYERN gave a protein stability index of 2.36.
Work on YGLTDFHKQDGKAGLFSQEQYERN yielded a protein stability index of 4.08.
YGNTDFHKQDGKAGLFSQEQYERN showed a protein stability index of 2.46.
Work on YGVTDFHKQDGKAGLFSQEQYERN yielded a protein stability index of 4.38.
For YGFTDFHKQDGKAGLFSQEQYERN, the protein stability index was 3.57.
Work on YGRTDFHKQDGKAGLFSQEQYERN yielded a protein stability index of 3.85.
YGHTDFHKQDGKAGLFSQEQYERN gave a protein stability index of 3.23.
Variant YGTTDFHKQDGKAGLFSQEQYERN has a protein stability index of 3.61.
For YGQTDFHKQDGKAGLFSQEQYERN, the protein stability index was 3.71.
YGMTDFHKQDGKAGLFSQEQYERN gave a protein stability index of 3.75.
YGCTDFHKQDGKAGLFSQEQYERN gave a protein stability index of 3.12.
Variant YGWTDFHKQDGKAGLFSQEQYERN has a protein stability index of 3.49.
For YGETDFFKQDGKAGLFSQEQYERN, the protein stability index was 1.88.
With YGETDFGKQDGKAGLFSQEQYERN the protein stability index was 4.58.
With YGETDFAKQDGKAGLFSQEQYERN the protein stability index was 4.48.
Work on YGETDFIKQDGKAGLFSQEQYERN yielded a protein stability index of 4.37.
YGETDFEKQDGKAGLFSQEQYERN gave a protein stability index of 4.93.
For YGETDFCKQDGKAGLFSQEQYERN, the protein stability index was 4.35.
Work on YGETDFLKQDGKAGLFSQEQYERN yielded a protein stability index of 3.92.
With YGETDFKKQDGKAGLFSQEQYERN the protein stability index was 4.18.
In the case of YGETDFDKQDGKAGLFSQEQYERN, the protein stability index is reported as 5.38.
Work on YGETDFMKQDGKAGLFSQEQYERN yielded a protein stability index of 3.9.
YMETDFHKQDGKAGLFSQEQYERN gave a protein stability index of 3.92.
Variant YLETDFHKQDGKAGLFSQEQYERN has a protein stability index of 4.46.
Variant YTETDFHKQDGKAGLFSQEQYERN has a protein stability index of 4.11.
Variant YNETDFHKQDGKAGLFSQEQYERN has a protein stability index of 4.78.
In the case of YCETDFHKQDGKAGLFSQEQYERN, the protein stability index is reported as 3.42.
YEETDFHKQDGKAGLFSQEQYERN showed a protein stability index of 5.38.
Variant YSETDFHKQDGKAGLFSQEQYERN has a protein stability index of 4.56.
YAETDFHKQDGKAGLFSQEQYERN gave a protein stability index of 3.49.
Work on YYETDFHKQDGKAGLFSQEQYERN yielded a protein stability index of 4.57.
YQETDFHKQDGKAGLFSQEQYERN gave a protein stability index of 3.67.
Work on YIETDFHKQDGKAGLFSQEQYERN yielded a protein stability index of 2.65.
YWETDFHKQDGKAGLFSQEQYERN gave a protein stability index of 3.62.
For YHETDFHKQDGKAGLFSQEQYERN, the protein stability index was 3.47.
For YVETDFHKQDGKAGLFSQEQYERN, the protein stability index was 1.6.
YRETDFHKQDGKAGLFSQEQYERN gave a protein stability index of 4.66.
Work on YPETDFHKQDGKAGLFSQEQYERN yielded a protein stability index of 4.95.
With YDETDFHKQDGKAGLFSQEQYERN the protein stability index was 4.95.
For YKETDFHKQDGKAGLFSQEQYERN, the protein stability index was 4.68.
YFETDFHKQDGKAGLFSQEQYERN gave a protein stability index of 4.61.
Work on YGETDWHKQDGKAGLFSQEQYERN yielded a protein stability index of 2.35.
YGETDAHKQDGKAGLFSQEQYERN showed a protein stability index of 5.22.
Variant YGETDIHKQDGKAGLFSQEQYERN has a protein stability index of 4.73.
YGETDTHKQDGKAGLFSQEQYERN gave a protein stability index of 4.6.
YGETDVHKQDGKAGLFSQEQYERN gave a protein stability index of 5.09.
In the case of YGETDDHKQDGKAGLFSQEQYERN, the protein stability index is reported as 5.26.
YGETDYHKQDGKAGLFSQEQYERN gave a protein stability index of 4.41.
Variant YGETDCHKQDGKAGLFSQEQYERN has a protein stability index of 4.54.
Work on YGETDQHKQDGKAGLFSQEQYERN yielded a protein stability index of 4.36.
YGETDHHKQDGKAGLFSQEQYERN showed a protein stability index of 5.22.
In the case of YGETDNHKQDGKAGLFSQEQYERN, the protein stability index is reported as 5.
YGETDMHKQDGKAGLFSQEQYERN showed a protein stability index of 4.91.
Variant YGETDSHKQDGKAGLFSQEQYERN has a protein stability index of 5.6.
Work on YGETDEHKQDGKAGLFSQEQYERN yielded a protein stability index of 5.38.
In the case of YGETDRHKQDGKAGLFSQEQYERN, the protein stability index is reported as 4.54.
YGETDKHKQDGKAGLFSQEQYERN showed a protein stability index of 4.91.
In the case of YGETDGHKQDGKAGLFSQEQYERN, the protein stability index is reported as 5.25.
YGETDPHKQDGKAGLFSQEQYERN gave a protein stability index of 4.94.
YGETDLHKQDGKAGLFSQEQYERN gave a protein stability index of 4.98.

Source: the supplement of paper PMC10567573
